Test results from publication PMC6599478.

Columns and labels:
[1] = biological target: HIV-1 clade B Tier 1A chronic virus MN.3 gp120 Env (HIV-1 (clade B, MN.3)) (UniProt P05877)
[2] = biological target: HIV-1 MN.3 Env with the glycan mutation N332A, on pseudovirus (HIV-1 (clade B, MN.3)) (UniProt P05877)

| Substance | IC50 of neutralisation of wild type HIV-1 MN.3 virus, TZM-bl reporter cells [1] | IC50 of neutralisation of HIV-1 MN.3 N332A pseudovirus, TZM-bl reporter cells [2] |
| --- | --- | --- |
| recombinant full length Tenascin-C, large isoform (TNC-L) (from UniProt P24821 23-2201) (natural protein) | 31 µg/mL | – |
| recombinant full length Tenascin-C, large isoform (TNC-L), P24821 23-2201 | – | 113 µg/mL |
